Measured values from patent US20180142038A1.

Assays:
[1] = target: Ab-A lot 9 (load; eluate from a ceramic hydroxyapatite column); experiment: AGV HTRF assay as in Example 6, load of the Ab-1 NHS Sepharose column
[2] = target: Ab-A lot 9 (load; eluate from a ceramic hydroxyapatite column); experiment: AGV HTRF assay as in Example 6, load of the Ab-1 Streptavidin Plus Ultralink column
[3] = target: Ab-A lot 9, pooled flow-through of the Ab-1 functionalized GE NHS-activated Sepharose 4 Fast Flow resin; experiment: AGV HTRF assay as in Example 6, pooled flow-through of the Ab-1 NHS Sepharose column
[4] = target: Ab-A lot 9, pooled flow-through of the Ab-1 functionalized Pierce Streptavidin Plus Ultralink resin; experiment: AGV HTRF assay as in Example 6, pooled flow-through of the Ab-1 Streptavidin Plus Ultralink column
Ab-A lot 1 = experiment: AGV HTRF assay (antibody 3 nM, antigen 1 nM, Eu anti-rabbit Fc donor, anti-human XL665 acceptor), signal relative to Ab-A lot 2

B1: Ab1 (antibody, V domains shown)
VH: QEQLVESGGGLVQPGASLTLTCTASGFSFSNTNYMCWVRQAPGRGLEWVGCMPVGFIASTFYATWAKGRSAISKSSSTAVTLQMTSLTVADTATYFCARESGSGWALNLWGQGTLVTVSS
VL: DPVLTQTPSPVSAAVGGTVTISCQASESVESGNWLAWYQQKPGQPPKLLIYYTSTLASGVPSRFKGSGSGAHFTLTISGVQCDDAATYYCQGAFYGVNTFGGGTEVVVKR
[1]
  Glycovariant signal in Load (POC): 9.3 POC
[2]
  Glycovariant signal in Load (POC): 9.3 POC
[3]
  Glycovariant signal in Flow-Through (POC): 6.3 POC
[4]
  Glycovariant signal in Flow-Through (POC): 1.2 POC
Ab-A lot 1
  percentage of control (POC), against Ab-A lot 2 (% of control (POC)): 25
